According to paper PMC8913309 (The Journal of Biological Chemistry, 2022):
Positions count from the first letter of the chain named. Names and notes keep the numbering of the source.

B1: Plasmodium falciparum phosphoglycerate mutase 1 (PfPGM1), recombinant His6-tagged WT protein (enzyme)
chain: MTTYTLVLLRHGESTWNKENKFTGWTDVPLSEKGEEEAIAAGKYLKEKNFKFDVVYTSVLKRAICTAWNVLKTADLLHVPVVKTWRLNERHYGSLQGLNKSETAKKYGEEQVKIWRRSYDIPPPKLDKEDNRWPGHNVVYKNVPKDALPFTECLKDTVERVLPFWFDHIAPDILANKKVMVAAHGNSLRGLVKHLDNLSEADVLELNIPTGVPLVYELDENLKPIKHYYLLDSEELKKKMDEVANQGKAK
B2: PfPGM1 K100R, recombinant His6-tagged mutant protein (enzyme, Plasmodium falciparum)
chain: B1 chain with K100R
B3: PfPGM1 P163A, recombinant His6-tagged mutant protein (enzyme, Plasmodium falciparum)
chain: B1 chain with P163A

Molecular target: the molecule itself
Test: SEC

Protein	stoichiometry N
B1	4
B2	4
B3	2
